Measurements taken from the supplement of paper PMC11908140.

B1: library; numbered along this chain (parent)
chain: MRKPRAAVGSGHRKQAASQEGRQKHAKNNSQAKPSACDGLARQPEEVVLQASVSSYHLFRDVAEVTAFRGSLLSWYDQEKRDLPWRRRAEDEMDLDRRAYAVWVSEVMLQQTQVATVINYYTGWMQKWPTLQDLASASLEEVNQLWAGLGYYSRGRRLQEGARKVVEELGGHMPRTAETLQQLLPGVGRYTAGAIASIAFGQATGVVDGNVARVLCRVRAIGADPSSTLVSQQLWGLAQQLVDPARPGDFNQAAMELGATVCTPQRPLCSQCPVESLCRARQRVEQEQLLASGSLSGSPDVEECAPNTGQCHLCLPPSEPWDQTLGVVNFPRKASRKPPREESSATCVLEQPGALGAQILLVQRPNSGLLAGLWEFPSVTWEPSEQLQRKALLQELQRWAGPLPATHLRHLGEVVHTFSHIKLTYQVYGLALEGQTPVTTVPPGARWLTQEEFHTAAVSTAMKKVFRVYQGQQPGTCMGSKRSQVSSPCSRKKPRMGQQVLDNFFRSHISTDAHSLNSAAQ

Variants of: B1
Experiment: 8OG:A repair function score (normalized; synonymous = 0, nonsense = -1) (normalized log-likelihood score); higher = more repair activity (WT-like)
Details: with 8OG:A DNA repair reporter (GFP) in HEK-293 MUTYH KO cells
Summary of the method: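 Per-tile Rosace fitness scores were converted to a normalized repair function score anchored on synonymous and nonsense distributions. That scale puts synonymous medians at 0 and nonsense medians at -1. Variants with starting counts under 300 counts per million were discarded. Input came from sorting viable mCherry+ MUTYH knockout HEK-293 cells, carrying lentiviral MUTYH cDNA NNN codon-scan libraries in 10 pg/ml doxycycline and an 8OG:A GFP repair reporter, into GFP+ and GFP− bins at 72 h, three replicates per tile, followed by tile amplicon sequencing.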
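Also: cells sorted at 72 h after reporter transfection.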

Variant	8OG:A repair function score
H420R	-0.393
R279P	-1.12
R175D	-0.192
V242Q	-0.763
P383G	-0.0743
L430A	-0.143
V458C	-0.27
P267F	-0.919
Q126I	-0.00505
D512L	-0.0115
A203Q	0.0356
G372V	-0.75
L229C	-0.201
T122S	-0.0596
T449E	-0.0743
S343I	-0.0485
L403V	0.058
A334R	0.0363
V441M	0.176
M125H	-0.401
A259W	-0.859
L360K	-1.23
L423D	-0.261
A135L	-0.28

Variant	8OG:A repair function score
W124S	-0.825
W399R	-0.289
G372Y	-0.393
Q181H	-0.175
W75R	-1.13
T263H	-0.124
R491F	0.0113
G39R	0.0558
L158S	-1.05
L72A	-0.207
D82Y	-0.0661
T130Y	-0.392
L131I	-0.158
M108K	-1.01
F466W	-0.0618
V107E	-0.669
H420E	-0.781
V114E	-0.932
C489A	-0.00252
G171W	-0.633
V427Y	-1.2
S153V	-0.00826
V102M	-0.352
N503S	-0.019

Variant	8OG:A repair function score
S384A	0.0362
S153D	-0.368
N517G	0.0215
G70V	0.0055
A147G	-0.174
L277S	-0.022
E141R	-0.449
S510V	-0.00843
E141H	0.19
P404F	-0.272
T263Y	-0.113
T260F	-0.281
M462I	-0.13
A253H	-1.03
G171K	-0.84
S487I	-0.00284
E395L	-0.23
N307D	0.0758
P365E	0.196
F200S	-0.54
P316Y	-0.161
V415H	-0.115
L408K	-0.858
V107M	0.0622

Variant	8OG:A repair function score
E342G	-0.00875
T346D	-0.917
I221F	-0.597
M462A	-0.0163
Y121W	-0.427
V102H	-2.8
P442S	0.00212
E451S	-0.131
G170Y	-0.062
D96V	-0.431
F453I	-0.334
V438Y	-0.0793
R86F	-1.75
Q472V	0.00907
A371D	-0.824
A6E	0.137
P488S	0.00249
Y76E	-1.5
I421W	-0.59
P474H	0.0269
A194F	-1.16
V414D	-0.769
S54K	-0.0583
A137I	-0.286

Variant	8OG:A repair function score
T440Y	0.157
V500L	0.00153
P437T	-0.142
P267I	-0.711
D91Q	-0.103
Q358L	0.00809
P437K	-0.15
K422N	-0.21
E275D	-0.113
Y425K	-0.0804
C269V	-1.27
H420S	-0.494
L403Y	-0.513
E433M	-0.0329
S276E	-0.0386
N119D	-0.419
V47Y	-0.0242
A203I	0.0319
A199Y	-1.05
E451R	0.0453
F466L	-0.0617
Y190H	-0.198
W146K	-0.739
E451C	-0.198

Variant	8OG:A repair function score
L83I	-0.196
V362F	-0.662
L313R	-0.425
Q282D	-0.125
A99R	-1.8
A99Y	-0.837
L149T	-0.81
A280P	-0.965
G326Y	-0.435
D224E	-0.936
Q252R	-1.01
P34L	0.131
R246I	-0.836
W374T	-1.02
L184N	-0.987
R364H	-0.405
L501A	0.00122
L448Y	-0.324
D502V	-0.0389
V415C	0.022
L289C	-0.0659
V117F	-1.21
S459G	-0.212
S483W	-0.033

Variant	8OG:A repair function score
S138T	0.0193
A445W	-0.606
L72S	-0.775
L387Q	0.0651
V327F	-0.513
R175T	-0.00924
L430E	-0.36
L411V	0.0699
H410L	-0.3
L408P	-0.461
N329P	-0.438
G475I	-0.00703
E64S	-0.158
G161H	-1.12
T116Y	-0.0318
V468F	-0.0236
A220Y	-0.75
V207I	-0.363
V65T	-0.00404
V465W	-1.07
R156S	-0.193
V274S	-0.589
P299S	-0.0568
